Laboratory results published in publication PMC4540644 (Journal of molecular biology, 2015).
Each block holds one binder with its values, some of them ahead of it.

Columns and labels:
Test in all cases: co-sedimentation
[1] = molecular target: Yeast (Saccharomyces cerevisiae) actin, wild type, filaments (Saccharomyces cerevisiae, UniProt P60010 1-375)
[2] = molecular target: T1, Rabbit skeletal muscle α-actin filaments (F-actin) (rabbit, UniProt P68135 1-377)
[3] = molecular target: T1, Rabbit skeletal muscle α-actin …; remark: listed apart in the source

binding result [1]: binds
stoichiometry N [2]: 1
B1: Human vinculin tail (VT, residues 879-1066) (domain or fragment, UniProt P18206-2 879-1066, looked up)
chain: EEKDEEFPEQKAGEVINQPMMMAARQLHDEARKWSSKGNDIIAAAKRMALLMAEMSRLVRGGSGTKRALIQCAKDIAKASDEVTRLAKEVAKQCTDKRIRTNLLQVCERIPTISTQLKILSTVKATMLGRTNISDEESEQATEMLVHNAQNLMQSVKETVREAEAASIKIRTDAGFTLRWVRKTPWYQ

Kd [3]: 560 ± 90 nM
stoichiometry N [2]: 1
B2: Human metavinculin tail (MVT, residues 879-1134) (domain or fragment)
chain: EEKDEEFPEQKAGEVINQPMMMAARQLHDEARKWSSKPGIPAAEVGIGVVAEADAADAAGFPVPPDMEDDYEPELLLMPSNQPVNQPILAAAQSLHREATKWSSKGNDIIAAAKRMALLMAEMSRLVRGGSGTKRALIQCAKDIAKASDEVTRLAKEVAKQCTDKRIRTNLLQVCERIPTISTQLKILSTVKATMLGRTNISDEESEQATEMLVHNAQNLMQSVKETVREAEAASIKIRTDAGFTLRWVRKTPWYQ
